Assay results from patent US20260258135A1 (BIOINTRON BIOLOGICAL, published 2026).

Target: T1, PDL1/His protein (human, UniProt Q9NZQ7 19-238, limits assumed, biotin-labeled in Examples 4 and 6 (site not stated); unlabeled in Example 9)
T1 construct: The reagent is named only PDL1/His; also called Biotin-labeled PDL1/His; Bio-PDL1; not shown: His tag
Test: relative affinity ranking, sandwich ELISA, biotin-PDL1/His titrated from 5 ug/mL
Procedure: The expression supernatants of the 11 single-point mutation molecules screened out in Example 4 and the 4 hotspot combination molecules screened out in Example 5 were subjected to relative affinity ranking. The specific process is as follows: The plate was coated with 1 μg/mL Goat-anti-human IgG Fc at 4° C. overnight. The coating solution was discarded the next day, and the plate was washed 5 times. Blocking was performed with 1% BSA at room temperature for 1 h, and the plate was washed 5 times. 50 μL of 2-fold diluted expression supernatant was added to each well and incubation was performed at room temperature for 1 h, and the plate was washed 5 times. Biotin-labeled PDL1/His diluted in series was added with 5 μg/mL in the first well, 3-fold dilution, and the last well as blank, and incubation was performed at room temperature for 1 h, and the plate was washed 5 times. SA-HRP was added, and incubation was performed at room temperature for 0.5 h, and the plate was washed 10 times. TMB color development was terminated after 4 min, and the absorbance at 450 nm was read.

T1 sequence (Q9NZQ7 19-238 limits assumed): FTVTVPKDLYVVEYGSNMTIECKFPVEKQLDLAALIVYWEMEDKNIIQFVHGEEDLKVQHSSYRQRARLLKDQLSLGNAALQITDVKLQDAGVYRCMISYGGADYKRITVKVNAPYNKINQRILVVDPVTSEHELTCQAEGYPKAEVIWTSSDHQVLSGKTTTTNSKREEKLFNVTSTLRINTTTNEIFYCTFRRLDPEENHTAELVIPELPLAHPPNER

Binder	binding result
B378737-32 (VHH, Single-point mutant of B378737 (position 32); not shown: human IgG Fc implied (supernatant captured with goat anti-human IgG Fc)) VHH: QVQLVESGGGLVQPGGSLRLSCAASARSINGQEWYRQAPGERRELVAGITAGGSAYYTDTVKGRFTISRDNAENTGYLQMNSLSPDDTAVYYCRRQYGPNWYWGQGTQVTVSS	binds
B378737-61-5 (VHH, Single-point mutant of B378737 (position 61); not shown: human IgG Fc implied (supernatant captured with goat anti-human IgG Fc)) VHH: QVQLVESGGGLVQPGGSLRLSCAASARSINGMEWYRQAPGERRELVAGITAGGSAYYTDTHKGRFTISRDNAENTGYLQMNSLSPDDTAVYYCRRQYGPNWYWGQGTQVTVSS	binds
B378737-61-7 (VHH, Single-point mutant of B378737 (position 61); not shown: human IgG Fc implied (supernatant captured with goat anti-human IgG Fc)) VHH: QVQLVESGGGLVQPGGSLRLSCAASARSINGMEWYRQAPGERRELVAGITAGGSAYYTDTLKGRFTISRDNAENTGYLQMNSLSPDDTAVYYCRRQYGPNWYWGQGTQVTVSS	binds
B378737-61-6 (VHH, Single-point mutant of B378737 (position 61); not shown: human IgG Fc implied (supernatant captured with goat anti-human IgG Fc)) VHH: QVQLVESGGGLVQPGGSLRLSCAASARSINGMEWYRQAPGERRELVAGITAGGSAYYTDTKKGRFTISRDNAENTGYLQMNSLSPDDTAVYYCRRQYGPNWYWGQGTQVTVSS	binds
B378737-61-4 (VHH, Single-point mutant of B378737 (position 61); not shown: human IgG Fc implied (supernatant captured with goat anti-human IgG Fc)) VHH: QVQLVESGGGLVQPGGSLRLSCAASARSINGMEWYRQAPGERRELVAGITAGGSAYYTDTTKGRFTISRDNAENTGYLQMNSLSPDDTAVYYCRRQYGPNWYWGQGTQVTVSS	binds
B378737-61-2 (VHH, Single-point mutant of B378737 (position 61); not shown: human IgG Fc implied (supernatant captured with goat anti-human IgG Fc)) VHH: QVQLVESGGGLVQPGGSLRLSCAASARSINGMEWYRQAPGERRELVAGITAGGSAYYTDTYKGRFTISRDNAENTGYLQMNSLSPDDTAVYYCRRQYGPNWYWGQGTQVTVSS	binds
B378737-51 (VHH, Single-point mutant of B378737 (position 51); not shown: human IgG Fc implied (supernatant captured with goat anti-human IgG Fc)) VHH: QVQLVESGGGLVQPGGSLRLSCAASARSINGMEWYRQAPGERRELVAGITSGGSAYYTDTVKGRFTISRDNAENTGYLQMNSLSPDDTAVYYCRRQYGPNWYWGQGTQVTVSS	binds
B378737-61-3 (VHH, Single-point mutant of B378737 (position 61); not shown: human IgG Fc implied (supernatant captured with goat anti-human IgG Fc)) VHH: QVQLVESGGGLVQPGGSLRLSCAASARSINGMEWYRQAPGERRELVAGITAGGSAYYTDTSKGRFTISRDNAENTGYLQMNSLSPDDTAVYYCRRQYGPNWYWGQGTQVTVSS	binds
B378737-61-1 (VHH, Single-point mutant of B378737 (position 61); not shown: human IgG Fc implied (supernatant captured with goat anti-human IgG Fc)) VHH: QVQLVESGGGLVQPGGSLRLSCAASARSINGMEWYRQAPGERRELVAGITAGGSAYYTDTPKGRFTISRDNAENTGYLQMNSLSPDDTAVYYCRRQYGPNWYWGQGTQVTVSS	binds

Target: T1, PDL1/His protein
Test: sandwich ELISA screen of hotspot combinations, as in Example 4

Binder	binding result
B378737-ZH-2 (VHH, Hotspot combination (positions 32 and 97); not shown: human IgG Fc implied (supernatant captured with goat anti-human IgG Fc)) VHH: QVQLVESGGGLVQPGGSLRLSCAASARSINGQEWYRQAPGERRELVAGITAGGSAYYTDTVKGRFTISRDNAENTGYLQMNSLSPDDTAVYYCRRQVGPNWYWGQGTQVTVSS	binds

Target: T1, PDL1/His protein
Test: Biacore 8K (SPR), purified antibody

Binder	fold increase of affinity over the parent antibody B378737 [times]
B378737-ZH-4 (VHH, Hotspot combination (positions 32, 61 and 97); not shown: human IgG Fc implied (supernatant captured with goat anti-human IgG Fc)) VHH: QVQLVESGGGLVQPGGSLRLSCAASARSINGQEWYRQAPGERRELVAGITAGGSAYYTDTHKGRFTISRDNAENTGYLQMNSLSPDDTAVYYCRRQVGPNWYWGQGTQVTVSS	12
B378737-ZH-1 (VHH, Hotspot combination (positions 32 and 97); not shown: human IgG Fc implied (supernatant captured with goat anti-human IgG Fc)) VHH: QVQLVESGGGLVQPGGSLRLSCAASARSINGQEWYRQAPGERRELVAGITAGGSAYYTDTVKGRFTISRDNAENTGYLQMNSLSPDDTAVYYCRRQFGPNWYWGQGTQVTVSS	10

Target: T1, PDL1/His protein
Test: hotspot screening sandwich ELISA, anti-human Fc 1.0 ug/mL, Bio-PDL1 4 ng/ml
Procedure: Goat-anti-human IgG Fc was subjected to serial dilution in Table 5 and coating was performed overnight at 4° C. The coating solution was discarded the next day, and the plate was washed 5 times. Blocking was performed with 1% BSA at room temperature for 1 h, and the plate was washed 5 times. 50 μL B378737 expression supernatant was added to each well, incubation was performed at room temperature for 1 h, and the plate was washed 5 times. Biotin-labeled PDL1/His protein diluted in series was added, incubation was performed at room temperature for 1 h, and the plate was washed 5 times. SA-HRP was added, incubation was performed at room temperature for 0.5 h, and the plate was washed 10 times. TMB color development was terminated after 4 min, and the absorbance at 450 nm was read. […] The sample was the mutant expressing supernatant, and the other processes were the same as above.

Binder	binding result
B378737-97-1 (VHH, Single-point mutant of B378737 (position 97); not shown: human IgG Fc implied (supernatant captured with goat anti-human IgG Fc)) VHH: QVQLVESGGGLVQPGGSLRLSCAASARSINGMEWYRQAPGERRELVAGITAGGSAYYTDTVKGRFTISRDNAENTGYLQMNSLSPDDTAVYYCRRQFGPNWYWGQGTQVTVSS	binds
B378737-97-2 (VHH, Single-point mutant of B378737 (position 97); copied as printed; not shown: human IgG Fc implied (supernatant captured with goat anti-human IgG Fc)) VHH: QVRLVESGGGLVQPGGSLRLSCAASARSINGMEWYRQAPGERRELVAGITAGGSAYYTDTVKGRFTISRDNAENTGYLQMNSLSPDDTAVYYCRRQVGPNWYWGQGTQVTVSS	binds
